Measurements published in article PMC5871717, “Transposase-DNA Complex Structures Reveal Mechanisms for Conjugative Transposition of Antibiotic Resistance” (Cell, 2018).

What was measured:
[1] = target: T1, Int82N (HJ-bound tetramer) (Enterococcus faecalis, UniProt Q7BP35 82-397); test: EMSA; 4:1 protein:HJ; […] (50 mM HEPES pH 7.5, 250 mM NaCl, 5 mM DTT, 10% glycerol), […]; conditions: protein: recombinant; tags: 6xHis-SUMO removed by SenP2; chain copies: 4; four-way junction of 4 strands
T1 sequence: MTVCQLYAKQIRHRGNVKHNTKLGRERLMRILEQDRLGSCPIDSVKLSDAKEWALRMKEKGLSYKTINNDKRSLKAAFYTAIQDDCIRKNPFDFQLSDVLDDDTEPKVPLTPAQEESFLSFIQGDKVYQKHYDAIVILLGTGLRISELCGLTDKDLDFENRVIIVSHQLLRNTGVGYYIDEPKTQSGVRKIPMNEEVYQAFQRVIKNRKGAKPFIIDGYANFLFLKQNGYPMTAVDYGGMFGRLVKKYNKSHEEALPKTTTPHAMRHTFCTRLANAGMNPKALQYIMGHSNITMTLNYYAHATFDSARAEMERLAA

Int82N(R225K) = target: T2, Int82N(R225K) (Enterococcus faecalis, UniProt Q7BP35 82-397, R225K); test: X-ray crystallography; 2 protein:1 DNA; […] (50 mM HEPES pH 7.5, 250 mM NaCl, 5 mM DTT, 10% glycerol), […]; conditions: protein: recombinant, tags: 6xHis-SUMO removed by SenP2, extra N-terminal S81, chain copies: 2, terminal T/T mismatch as printed
T2 sequence: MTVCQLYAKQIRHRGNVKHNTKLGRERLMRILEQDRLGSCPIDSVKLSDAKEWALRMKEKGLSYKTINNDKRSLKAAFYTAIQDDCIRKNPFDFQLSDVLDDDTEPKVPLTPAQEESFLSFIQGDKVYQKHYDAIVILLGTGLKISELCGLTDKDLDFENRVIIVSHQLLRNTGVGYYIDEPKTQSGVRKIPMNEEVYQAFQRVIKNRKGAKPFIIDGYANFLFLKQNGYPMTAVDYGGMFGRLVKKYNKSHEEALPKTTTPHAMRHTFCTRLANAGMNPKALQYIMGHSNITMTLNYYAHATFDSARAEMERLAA

Int82N [2] = target: T3, Int82N (Enterococcus faecalis, UniProt Q7BP35 82-397); test: EMSA; 2:1 complex; similar affinity to CI5; […] (50 mM HEPES pH 7.5, 250 mM NaCl, 5 mM DTT, 10% glycerol), […]; conditions: protein: recombinant; tags: 6xHis-SUMO removed by SenP2; extra N-terminal S81; chain copies: 2; 45 bp; terminal T/T mismatch as printed
T3 sequence: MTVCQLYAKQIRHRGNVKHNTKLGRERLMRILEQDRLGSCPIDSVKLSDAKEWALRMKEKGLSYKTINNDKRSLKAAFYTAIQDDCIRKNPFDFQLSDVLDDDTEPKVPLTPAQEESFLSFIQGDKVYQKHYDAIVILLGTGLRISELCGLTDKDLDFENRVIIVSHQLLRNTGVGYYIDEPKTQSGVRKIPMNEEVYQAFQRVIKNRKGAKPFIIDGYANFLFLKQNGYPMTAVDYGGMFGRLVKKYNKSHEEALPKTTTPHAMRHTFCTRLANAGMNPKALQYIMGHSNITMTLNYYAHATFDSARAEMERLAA

381C = 381C (Enterococcus faecalis, UniProt Q7BP35 82-381); test: EMSA; monomeric and higher oligomers; […] (50 mM HEPES pH 7.5, 250 mM NaCl, 5 mM DTT, 10% glycerol), […]; conditions: protein: recombinant; tags: 6xHis-SUMO removed by SenP2; label: 5'-32P in EMSA; none in crystals; 44 bp; terminal T/T mismatch as printed
390C = 390C (Enterococcus faecalis, UniProt Q7BP35 82-390); test: as above; conditions: protein: recombinant; tags: 6xHis-SUMO removed by SenP2; label: 5'-32P in EMSA; none in crystals; 44 bp; terminal T/T mismatch as printed
Int82N [3] = target: T3, Int82N; test: X-ray crystallography; wild-type catalytic residues; […] (50 mM HEPES pH 7.5, 250 mM NaCl, 5 mM DTT, 10% glycerol), […]; conditions: protein: recombinant; tags: 6xHis-SUMO removed by SenP2; extra N-terminal S81; chain copies: 2; label: 5'-32P in EMSA; none in crystals; 44 bp; terminal T/T mismatch as printed
Int82N [4] = target: T3, Int82N; test: 2AP fluorescence; base-flipping readout; […] (50 mM HEPES pH 7.5, 250 mM NaCl, 5 mM DTT, 10% glycerol), […]; conditions: protein: recombinant; tags: 6xHis-SUMO removed by SenP2; extra N-terminal S81; chain copies: 2; label: 2AP; 44 nt strands; 2AP opposite C at one flipped base; terminal T/T mismatch
Int82N(Y379F) = target: T4, Int82N(Y379F) (Enterococcus faecalis, UniProt Q7BP35 82-397, Y379F); test: X-ray crystallography; […] (50 mM HEPES pH 7.5, 250 mM NaCl, 5 mM DTT, 10% glycerol), […]; conditions: protein: recombinant; tags: 6xHis-SUMO removed by SenP2; 5' overhang 6 nt
T4 sequence: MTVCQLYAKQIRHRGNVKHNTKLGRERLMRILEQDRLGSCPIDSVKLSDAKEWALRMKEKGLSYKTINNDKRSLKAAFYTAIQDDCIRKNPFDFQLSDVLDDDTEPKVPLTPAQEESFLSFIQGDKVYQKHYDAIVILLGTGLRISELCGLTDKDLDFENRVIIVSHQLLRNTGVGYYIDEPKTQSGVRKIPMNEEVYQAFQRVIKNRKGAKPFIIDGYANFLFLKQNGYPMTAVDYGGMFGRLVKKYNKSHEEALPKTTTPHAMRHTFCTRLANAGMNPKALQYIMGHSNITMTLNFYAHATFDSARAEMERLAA

[5] = target: the molecule itself; test: crystal structure; Int^82N (R225K or wild type) with 44 bp CI5 dsDNA at 2:1 molar ratio in Buffer C; vapor diffusion at 20°C; 2.8 Å
[6] = target: the molecule itself; test: SEC; analytical size exclusion chromatography on Superdex 200 10/300, proteins without DNA

B1: HJ (EMSA) (structured_DNA)
DNA 1: AGTGAACAGCCCACAAAATTTTGAAAATAAAATTTTAGGTTATCGCTGGCTAGTCCATGC
DNA 2: GCATGGACTAGCCAGCGATAACCTAAAATTTTATTAATAAAATTATATGGGATTT
DNA 3: CCAAATTTTTTACCGGGTTTTGAATTCAAAATTTTGTGGGCTGTTCACT
DNA 4: AAATCCCATATAATTTTATTTTCAAAACCCGGTAAAAAATTTGG
binding result [1]: binds

B2: CI6a (dsDNA)
DNA 1: TGCGATAACCTAAAATTTTATTTTCAAAATTATATGGGATTTTAG
DNA 2: CTAAAATCCCATATAATTTTGAAAATAAAATTTTAGGTTATCGCT
binding result (Int82N(R225K); 45 bp): binds | binding result (Int82N [2]): binds

B3: CI6b (dsDNA)
DNA 1: TGCGATAACCTAAAATTTTCCCTTTAAAATTATATGGGATTTTAG
DNA 2: CTAAAATCCCATATAATTTTAAAGGGAAAATTTTAGGTTATCGCT
binding result (Int82N(R225K); 45 bp): binds | binding result (Int82N [2]): binds

B4: CI5 (dsDNA)
DNA 1: TGCGATAACCTAAAATTTTATAGCAAAATTATATGGGATTTTAG
DNA 2: CTAAAATCCCATATAATTTTGCTATAAAATTTTAGGTTATCGCT
binding result (381C): binds | binding result (390C): binds | binding result (Int82N(R225K); label: 5'-32P in EMSA, none in crystals, 44 bp): binds | binding result (Int82N [3]): binds

B5: CI5-F (dsDNA)
DNA 1: TGCGATAACCTAAAATTTTTTAGAAAAATTATATGGGATTTTAG
DNA 2: CTAAAATCCCATATAATTTTCCTAAAAAATTTTAGGTTATCGCT
modifications: 2-aminopurine (written A) at position 24 of top and 25 of bottom strand
binding signal (Int82N [4]): ~4.6 fold 2AP fluorescence increase

B6: IRR half-site (dsDNA)
DNA 1: ATTTTCAAAATTATGGGATTTTAG
DNA 2: CTAAAATCCCATATAATTTT
binding result (Int82N(Y379F)): binds

B7: Int^82N(R225K), catalytic mutant of Tn1549 Int aa 82–397 (domain or fragment, Enterococcus faecalis)
chain: SMTVCQLYAKQIRHRGNVKHNTKLGRERLMRILEQDRLGSCPIDSVKLSDAKEWALRMKEKGLSYKTINNDKRSLKAAFYTAIQDDCIRKNPFDFQLSDVLDDDTEPKVPLTPAQEESFLSFIQGDKVYQKHYDAIVILLGTGLKISELCGLTDKDLDFENRVIIVSHQLLRNTGVGYYIDEPKTQSGVRKIPMNEEVYQAFQRVIKNRKGAKPFIIDGYANFLFLKQNGYPMTAVDYGGMFGRLVKKYNKSHEEALPKTTTPHAMRHTFCTRLANAGMNPKALQYIMGHSNITMTLNYYAHATFDSARAEMERLAA
notes: additional residue S81 left after SenP2 cleavage of the purification tags; Tn1549 integrase (Int), Enterococcus faecalis, GenBank AAF72368.1, aa 82-397, with R225K; Crystallised with CI5, CI6a and CI6b DNA; also called R225K Int^82N; not shown: His6, N-terminal, cleaved; SUMO, N-terminal, cleaved
binding result [5]: binds

B8: Tn1549 Int variant lacking the AB domain (aa 82–397; Int^82N), wild type (domain or fragment, Enterococcus faecalis)
chain: SMTVCQLYAKQIRHRGNVKHNTKLGRERLMRILEQDRLGSCPIDSVKLSDAKEWALRMKEKGLSYKTINNDKRSLKAAFYTAIQDDCIRKNPFDFQLSDVLDDDTEPKVPLTPAQEESFLSFIQGDKVYQKHYDAIVILLGTGLRISELCGLTDKDLDFENRVIIVSHQLLRNTGVGYYIDEPKTQSGVRKIPMNEEVYQAFQRVIKNRKGAKPFIIDGYANFLFLKQNGYPMTAVDYGGMFGRLVKKYNKSHEEALPKTTTPHAMRHTFCTRLANAGMNPKALQYIMGHSNITMTLNYYAHATFDSARAEMERLAA
notes: additional residue S81 left after SenP2 cleavage of the purification tags; Tn1549 integrase (Int), Enterococcus faecalis, GenBank AAF72368.1, aa 82-397 (CB and CAT domains, no AB domain); full length is aa 1-397; Codon-optimised synthetic gene in pETM28 (BamHI/XhoI); also called Int^82N(wt); Tn1549 integrase; not shown: His6, N-terminal, cleaved; SUMO, N-terminal, cleaved
stoichiometry N [6]: 2
